Columns and labels:
[1] = target: T1, purified human monomeric 4-1BB (human, UniProt Q07011 24-186); test: SPR, mean n=3;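 also: antibodies captured on anti-human Fc chip, 4-1BB injected as five-point two-fold series from 40 nM by single-cycle kinetics at 25 °C, sensorgrams fitted to 1:1 Langmuir model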
T1 construct: the assay used the 4-1BB part released by Factor Xa with the Fc removed; also called h4-1BB; human 4-1BB
Protocol: The anti-human Fc surface was prepared on a CMS Series S sensorchip by standard amine coupling methods as described by the manufacturer (GE Healthcare). Briefly, immediately after EDC/NHS activation, a 25 μg/mL solution of anti-human Fc in 10 mM NaOAc pH 4.5 was injected at a flow rate of 10 μL/min for 420 s until approximately 2000 resonance units (RUs) were immobilized on all four flow cells. The remaining active groups were quenched by a 420 s injection of 1M ethanolamine at 10 μL/min.
Antibodies for analysis were captured onto the anti-Fc surface by injecting 5 μg/mL solutions at a flow rate of 10 μL/min for 60 s. Using single-cycle kinetics, five concentrations of a two-fold dilution series of 4-1BB starting at 40 nM (for both supernatant and purified antibody runs) with a blank buffer control were sequentially injected at 40 μL/min for 180 s with a 600 s dissociation phase, resulting in a set of sensorgrams with a buffer blank reference. Experiments were performed at a constant temperature of 25° C. The anti-human Fc surfaces were regenerated to prepare for the next injection cycle by one pulse of 10 mM Glycine/HCl pH 1.5 for 120 s at 40 μL/min. Blank-subtracted sensorgrams were analyzed using Biacore™ T200 Evaluation Software v3.0. The blank-subtracted sensorgrams were then fit to the 1:1 Langmuir binding model.
Protein material post protein-A or SEC was assessed for binding to human 4-1BB.

[2] = target: T2, human 4-1BB, full-length, expressed on cells (human, UniProt Q07011 24-255); test: flow cytometry, Jurkat-4-1BB
T2 construct: also called CD137; TNFRSF9
Protocol: Jurkat T cells engineered to stably express human 4-1BB were used to measure binding of antibodies to human 4-1BB. Antibodies were diluted in 5 μl FB (PBS 2% FCS) 1:3 from stock in wells of a 96 V-well plate, and cells added on top. The cells were then left on ice for 30 minutes for the antibodies to bind. The cells were then washed twice in FB, and then incubated in 50 μl FB containing 2 μg/ml goat anti-human Alexa647 antibody (Jackson Immunoresearch). The cells were then left on ice for a further 20 minutes, washed twice in FB, resuspended in 100 μl FB and analysed on a BD Fortessa™ X20. The subsequent data files were analysed using FlowJo™ and Prism 7 (GraphPad) using a four-parameter non-linear regression.

[3] = target: T3, recombinant His-tagged human FRα (human, UniProt P15328 25-234); test: BLI, supernatant, n=1
T3 construct: Bought protein; also called hFRα; FRα-HIS
T3 sequence (P15328 25-234 limits assumed): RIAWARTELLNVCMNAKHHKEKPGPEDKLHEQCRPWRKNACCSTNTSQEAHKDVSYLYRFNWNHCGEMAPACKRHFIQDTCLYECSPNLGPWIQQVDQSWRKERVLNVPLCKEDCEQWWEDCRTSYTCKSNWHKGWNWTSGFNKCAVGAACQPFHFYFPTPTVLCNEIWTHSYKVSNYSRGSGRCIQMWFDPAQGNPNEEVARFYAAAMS
Protocol: The assay buffer used was KB buffer (kinetics buffer, composed of PBS pH 7.4, 0.1% BSA, 0.02% Tween 20, 0.05% sodium azide) supplemented with 0.06% Tween 20. The experiment was conducted at 25° C. with a shake speed of 1000 rpm.
Data analysis was performed using the Data analysis software 9.0′ (ForteBio). The reference-subtracted binding curves were globally fitted to the 1:1 interaction model to generate the binding kinetic parameters kₒₙ, koff, and the dissociation constant KD.

T2 sequence (Q07011 24-255): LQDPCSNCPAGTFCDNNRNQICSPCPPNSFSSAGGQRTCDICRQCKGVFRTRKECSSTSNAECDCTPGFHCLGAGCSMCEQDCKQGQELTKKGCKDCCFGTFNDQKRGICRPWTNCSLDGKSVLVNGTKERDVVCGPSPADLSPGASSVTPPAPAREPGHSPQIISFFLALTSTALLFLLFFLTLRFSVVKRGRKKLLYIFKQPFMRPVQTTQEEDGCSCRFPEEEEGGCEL
T1 sequence (Q07011 other isoform, or with tags, fused parts or gaps limits assumed): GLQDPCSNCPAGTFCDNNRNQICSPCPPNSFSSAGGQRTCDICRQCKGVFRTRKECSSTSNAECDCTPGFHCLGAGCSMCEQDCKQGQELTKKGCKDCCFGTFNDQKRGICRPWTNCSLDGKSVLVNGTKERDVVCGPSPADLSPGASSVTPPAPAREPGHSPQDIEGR

| Kd [1] | EC50 [2] | Kd [3] | Binder |
| --- | --- | --- | --- |
| 46.4 nM | 0.771 nM | – | v28692 (antibody, human IgG1, kappa, L234A L235A, V domains shown, also called humanized 1G1 H3L2) VH: EVQLVESGGGLVQPGGSLRLSCAASGFTFSEFGMHWVRQAPGKGLEWVAYISSGGSTIYYADSVKGRFTISRDNAKNSLYLQMNSLRAEDTAMYYCARDWVDYWGQGTLLTVSS VL: EIVLTQSPATLSLSPGERATLSCKASENVGSYVSWYQQKPGQAPRLLIYGASNRYTGVPARFSGSGSGTDFTLTISSLEPEDFAVYYCGQSYSYPLTFGGGTKVEIKR |
| 34.7 nM | 0.455 nM | – | v28694 (antibody, human IgG1, kappa, L234A L235A, V domains shown, also called humanized 1G1 H3L4) VH: EVQLVESGGGLVQPGGSLRLSCAASGFTFSEFGMHWVRQAPGKGLEWVAYISSGGSTIYYADSVKGRFTISRDNAKNSLYLQMNSLRAEDTAMYYCARDWVDYWGQGTLLTVSS VL: EIVMTQSPATLSLSPGERVTLSCKASENVGSYVSWYQQKPGQAPRLLIYGASNRYTGVPARFSGSGSGTDFTLTISSVEPEDLAVYYCGQSYSYPLTFGGGTKLELKR |
| 36.2 nM | 0.353 nM | – | v28693 (antibody, human IgG1, kappa, L234A L235A, V domains shown, also called humanized 1G1 H3L3) VH: EVQLVESGGGLVQPGGSLRLSCAASGFTFSEFGMHWVRQAPGKGLEWVAYISSGGSTIYYADSVKGRFTISRDNAKNSLYLQMNSLRAEDTAMYYCARDWVDYWGQGTLLTVSS VL: EIVMTQSPATLSLSPGERVTLSCKASENVGSYVSWYQQKPGQAPRLLIYGASNRYTGVPARFSGSGSGTDFTLTISSVEPEDFAVYYCGQSYSYPLTFGGGTKLELKR |
| – | – | 35 nM | v23810 (antibody, human IgG1, kappa, V domains shown, also called humanized 8K22 H2L4) VH: EVQLVESGGGLVQPGGSLRLSCAASGFTISNNYYMCWVRQAPGKGLEWIACIYGGISGRTYYADSAKGRFTISKDNSKNTVYLQMNSLRAEDTAVYYCVRGYVGTSNLWGQGTLVTVSS VL: DIQMTQSPSSLSASVGDRVTITCQASQSIYSSLAWYQQKPGKAPKLLIYDASHLASGVPSRFSGSGSGTDFTLTISSVQPEDAATYYCQGGWYSSAATYVPNTFGGGTKVEVKR |
| 229 nM | 3.56 nM | – | v28712 (antibody, human IgG1, kappa, L234A L235A, V domains shown, also called humanized 5G8 H4L3) VH: QVQLQESGPGLVKPSETLSITCTVSGFSLISYGVHWVRQPPGKGLEWLGVIWSGGSTDYNPSLKSRVTISKDNSKNQVSFKLSSLTAADTAIYYCARNPLTATVMDYWGQGTLVTVSS VL: DIQMTQSPSSLSASVGDRVTVTCRASQNVGTNVAWYQQKPGKAPKALIYSASYRDSGVPSRFSGSGSGTDFTLTISSVQPEDFATYYCQQYNSYPLTFGGGTKLEIKR |
| 222 nM | 56.4 nM | – | v28700 (antibody, human IgG1, kappa, L234A L235A, V domains shown, also called humanized 5G8 H2L2) VH: QVQLQESGPGLVKPSETLSLTCTVSGFSLISYGVHWVRQPPGKGLEWLGVIWSGGSTDYNPSLKSRVTISKDTSKNQFSLKLSSVTAADTAVYYCARNPLTATVMDYWGQGTLVTVSS VL: DIQMTQSPSSLSASVGDRVTITCRASQNVGTNVAWYQQKPGKAPKALIYSASYRDSGVPSRFSGSGSGTDFTLTISSLQPEDFATYYCQQYNSYPLTFGGGTKVEIKR |
| 732 nM | 51.6 nM | – | v28707 (antibody, human IgG1, kappa, L234A L235A, V domains shown, also called humanized 5G8 H4L1) VH: QVQLQESGPGLVKPSETLSITCTVSGFSLISYGVHWVRQPPGKGLEWLGVIWSGGSTDYNPSLKSRVTISKDNSKNQVSFKLSSLTAADTAIYYCARNPLTATVMDYWGQGTLVTVSS VL: DIQMTQSPSSLSASVGDRVTITCRASQNVGTNVAWFQQKPGKAPKSLIYSASYRDSGVPSRFSGSGSGTDFTLTISSLQPEDFATYYCQQYNSYPLTFGGGTKVEIKR |
| 184 nM | 2.34 nM | – | v28713 (antibody, human IgG1, kappa, L234A L235A, V domains shown, also called humanized 5G8 H4L4) VH: QVQLQESGPGLVKPSETLSITCTVSGFSLISYGVHWVRQPPGKGLEWLGVIWSGGSTDYNPSLKSRVTISKDNSKNQVSFKLSSLTAADTAIYYCARNPLTATVMDYWGQGTLVTVSS VL: DIQMTQSPSSLSASVGDRVTVTCRASQNVGTNVAWYQQKPGKAPKALIYSASYRDSGVPSRFSGSGSGTDFTLTISSVQPEDLATYYCQQYNSYPLTFGGGTKLEIKR |
| 620 nM | 55.6 nM | – | v28702 (antibody, human IgG1, kappa, L234A L235A, V domains shown, also called humanized 5G8 H2L4) VH: QVQLQESGPGLVKPSETLSLTCTVSGFSLISYGVHWVRQPPGKGLEWLGVIWSGGSTDYNPSLKSRVTISKDTSKNQFSLKLSSVTAADTAVYYCARNPLTATVMDYWGQGTLVTVSS VL: DIQMTQSPSSLSASVGDRVTVTCRASQNVGTNVAWYQQKPGKAPKALIYSASYRDSGVPSRFSGSGSGTDFTLTISSVQPEDLATYYCQQYNSYPLTFGGGTKLEIKR |

The remaining lines, values behind:

| Binder | Kd [1] | EC50 [2] | Kd [3] |
| --- | --- | --- | --- |
| v23800 (antibody, human IgG1, kappa, also called humanized 8K22 H2L2) heavy: not shown light: DIQMTQSPSSLSASVGDRVTITCQASQSIYSSLAWYQQKPGKAPKLLIYDASHLASGVPSRFSGSGSGTDFTLTISSVQPEDFATYYCQGGWYSSAATYVPNTFGGGTKVEVKRTVAAPSVFIFPPSDEQLKSGTASVVCLLNNFYPREAKVQWKVDNALQSGNSQESVTEQDSKDSTYSLSSTLTLSKADYEKHKVYACEVTHQGLSSPVTKSFNRGEC | – | – | 36.5 nM |
| v23803 (antibody, human IgG1, kappa, also called humanized 8K22 H5L2) heavy: not shown light: DIQMTQSPSSLSASVGDRVTITCQASQSIYSSLAWYQQKPGKAPKLLIYDASHLASGVPSRFSGSGSGTDFTLTISSVQPEDFATYYCQGGWYSSAATYVPNTFGGGTKVEVKRTVAAPSVFIFPPSDEQLKSGTASVVCLLNNFYPREAKVQWKVDNALQSGNSQESVTEQDSKDSTYSLSSTLTLSKADYEKHKVYACEVTHQGLSSPVTKSFNRGEC | – | – | 31.7 nM |
| v23795 (antibody, human IgG1, kappa, also called humanized 8K22 H2L1) heavy: not shown light: DIQMTQSPSSLSASVGDRVTITCQASQSIYSSLAWYQQKPGKAPKLLIYDASHLASGVPSRFSGSGSGTDFTLTISSVQPEDFATYYCQGGWYSSAATYVPNTFGGGTKVEIKRTVAAPSVFIFPPSDEQLKSGTASVVCLLNNFYPREAKVQWKVDNALQSGNSQESVTEQDSKDSTYSLSSTLTLSKADYEKHKVYACEVTHQGLSSPVTKSFNRGEC | – | – | 35.7 nM |
| v23813 (antibody, human IgG1, kappa, V domains shown, also called humanized 8K22 H5L4) VH: EVQLVESGGGLVQPGGSLRLSCAASGFTISNNYYMCWVRQAPGKGLEWIACIYGGISGRTYYADWAKGRFTISKDSSKNTVYLQMNSLRAEDTAVYYCVRGYVGTSNLWGQGTLVTVSS VL: DIQMTQSPSSLSASVGDRVTITCQASQSIYSSLAWYQQKPGKAPKLLIYDASHLASGVPSRFSGSGSGTDFTLTISSVQPEDAATYYCQGGWYSSAATYVPNTFGGGTKVEVKR | – | – | 34.6 nM |
| v28705 (antibody, human IgG1, kappa, L234A L235A, V domains shown, also called humanized 5G8 H3L3) VH: QVQLQESGPGLVKPSETLSITCTVSGFSLISYGVHWVRQPPGKGLEWLGVIWSGGSTDYNPSLKSRVTISKDTSKNQVSFKLSSLTAADTAIYYCARNPLTATVMDYWGQGTLVTVSS VL: DIQMTQSPSSLSASVGDRVTVTCRASQNVGTNVAWYQQKPGKAPKALIYSASYRDSGVPSRFSGSGSGTDFTLTISSVQPEDFATYYCQQYNSYPLTFGGGTKLEIKR | 195 nM | 3.32 nM | – |
| v28698 (antibody, human IgG1, kappa, L234A L235A, V domains shown, also called humanized 5G8 H1L4) VH: QVQLQESGPGLVKPSETLSLTCTVSGFSLISYGVHWIRQPPGKGLEWIGVIWSGGSTDYNPSLKSRVTISVDTSKNQFSLKLSSVTAADTAVYYCARNPLTATVMDYWGQGTLVTVSS VL: DIQMTQSPSSLSASVGDRVTVTCRASQNVGTNVAWYQQKPGKAPKALIYSASYRDSGVPSRFSGSGSGTDFTLTISSVQPEDLATYYCQQYNSYPLTFGGGTKLEIKR | 1110 nM | 38.3 nM | – |
| v28706 (antibody, human IgG1, kappa, L234A L235A, V domains shown, also called humanized 5G8 H3L4) VH: QVQLQESGPGLVKPSETLSITCTVSGFSLISYGVHWVRQPPGKGLEWLGVIWSGGSTDYNPSLKSRVTISKDTSKNQVSFKLSSLTAADTAIYYCARNPLTATVMDYWGQGTLVTVSS VL: DIQMTQSPSSLSASVGDRVTVTCRASQNVGTNVAWYQQKPGKAPKALIYSASYRDSGVPSRFSGSGSGTDFTLTISSVQPEDLATYYCQQYNSYPLTFGGGTKLEIKR | 159 nM | 1.92 nM | – |
| v28703 (antibody, human IgG1, kappa, L234A L235A, V domains shown, also called humanized 5G8 H3L1) VH: QVQLQESGPGLVKPSETLSITCTVSGFSLISYGVHWVRQPPGKGLEWLGVIWSGGSTDYNPSLKSRVTISKDTSKNQVSFKLSSLTAADTAIYYCARNPLTATVMDYWGQGTLVTVSS VL: DIQMTQSPSSLSASVGDRVTITCRASQNVGTNVAWFQQKPGKAPKSLIYSASYRDSGVPSRFSGSGSGTDFTLTISSLQPEDFATYYCQQYNSYPLTFGGGTKVEIKR | 811 nM | 3.58 nM | – |
| v28701 (antibody, human IgG1, kappa, L234A L235A, V domains shown, also called humanized 5G8 H2L3) VH: QVQLQESGPGLVKPSETLSLTCTVSGFSLISYGVHWVRQPPGKGLEWLGVIWSGGSTDYNPSLKSRVTISKDTSKNQFSLKLSSVTAADTAVYYCARNPLTATVMDYWGQGTLVTVSS VL: DIQMTQSPSSLSASVGDRVTVTCRASQNVGTNVAWYQQKPGKAPKALIYSASYRDSGVPSRFSGSGSGTDFTLTISSVQPEDFATYYCQQYNSYPLTFGGGTKLEIKR | 610 nM | 30 nM | – |
| v28711 (antibody, human IgG1, kappa, L234A L235A, V domains shown, also called humanized 5G8 H4L2) VH: QVQLQESGPGLVKPSETLSITCTVSGFSLISYGVHWVRQPPGKGLEWLGVIWSGGSTDYNPSLKSRVTISKDNSKNQVSFKLSSLTAADTAIYYCARNPLTATVMDYWGQGTLVTVSS VL: DIQMTQSPSSLSASVGDRVTITCRASQNVGTNVAWYQQKPGKAPKALIYSASYRDSGVPSRFSGSGSGTDFTLTISSLQPEDFATYYCQQYNSYPLTFGGGTKVEIKR | 227 nM | 139 nM | – |
| v28704 (antibody, human IgG1, kappa, L234A L235A, V domains shown, also called humanized 5G8 H3L2) VH: QVQLQESGPGLVKPSETLSITCTVSGFSLISYGVHWVRQPPGKGLEWLGVIWSGGSTDYNPSLKSRVTISKDTSKNQVSFKLSSLTAADTAIYYCARNPLTATVMDYWGQGTLVTVSS VL: DIQMTQSPSSLSASVGDRVTITCRASQNVGTNVAWYQQKPGKAPKALIYSASYRDSGVPSRFSGSGSGTDFTLTISSLQPEDFATYYCQQYNSYPLTFGGGTKVEIKR | 179 nM | 3.46 nM | – |

— patent US20230052369A1 (Zymeworks, published 2023)
